# Test results as given in patent KR20190105077A.
# Tests used:
# Assay in all cases: cell-based or functional assay
# [1] = molecular target: 인간 PD-1 (human PD-1) (human) (UniProt Q15116)
# [2] = molecular target: 배양된 세포에 의해 내인적으로 생성되는 TGF-β
# [3] = molecular target: 인간 TGF-β1 (human TGF-β1) (human) (UniProt P01137)
# Chain of UniProt P01137 (P01137 279-390 limits assumed): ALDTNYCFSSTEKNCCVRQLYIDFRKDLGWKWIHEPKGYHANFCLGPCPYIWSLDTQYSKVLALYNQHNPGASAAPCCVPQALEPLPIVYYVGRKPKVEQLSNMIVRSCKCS
# Chain of UniProt Q15116 (Q15116 25-288): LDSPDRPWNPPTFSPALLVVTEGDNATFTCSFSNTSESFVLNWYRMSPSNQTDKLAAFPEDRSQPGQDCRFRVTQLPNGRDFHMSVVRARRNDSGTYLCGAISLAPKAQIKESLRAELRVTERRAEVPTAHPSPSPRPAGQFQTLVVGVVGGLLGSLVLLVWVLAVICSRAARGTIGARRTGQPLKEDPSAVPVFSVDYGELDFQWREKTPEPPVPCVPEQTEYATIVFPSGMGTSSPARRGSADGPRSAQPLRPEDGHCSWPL
Substance,"NFAT-루시퍼라제 상대 발광 단위, 인간 PD-1 발현 Jurkat T 세포와 인간 PD-L1 발현 CHO-K1 세포의 24시간 공동-배양 [1] [RLU]","루시퍼라제 활성의 배율 변화, 항-hPD-1 항체 대 이소형 대조군 (234963 RLU) [1]","루시퍼라제 활성의 배율 변화, 항-hPD-1 항체 대 항체 부재 (206043 RLU) [1]","iTreg(FOXP3+CD25+) 백분율, 자극된 인간 CD4+ T 세포, 항체 50 ㎍/㎖, 외인성 TGF-β 없음 (항체 없이 15%) [2] [%]","NFAT-루시퍼라제 상대 발광 단위, 18 ng/㎖ TGF-β1로 12일 사전-처리된 Jurkat T 세포, 항-PD-1 Ab 존재 하 CHO-K1 공동-배양 (Ab 부재: 638866) [3] [RLU]","iTreg(CD25+FOXP3+) 백분율, 자극된 인간 CD4+ T 세포 + 2 ng/㎖ 인간 TGF-β1, 항체 200 ㎍/㎖ 및 6.25 ㎍/㎖ (항체 없이 55%) [3] [%]"
마우스 항-hPD-1 IgG (BioLegend Cat#329912) (antibody),866000,3.69 배,4.2 배,,,
"항-HEL hIgG4 (인간 IgG4, 카파 항-계란 라이소자임 항체, Crown Bioscience) (antibody)",,,,20,639000,60
